Assay results as given in patent US20230055566A1 (DIZAL JIANGSU PHARMACEUTICAL, published 2023).
Numbering of substitutions follows the chain as printed. Numbers in names are those of the source.

What was measured:
FGFR4-Fc [1] = biological target: T1, FGFR4-Fc (human, UniProt P22455 22-369); assay: ELISA on FGFR family Fc fusion proteins
T1 construct: Bought from R&D Systems; not shown: human Fc
T1 sequence (looked up): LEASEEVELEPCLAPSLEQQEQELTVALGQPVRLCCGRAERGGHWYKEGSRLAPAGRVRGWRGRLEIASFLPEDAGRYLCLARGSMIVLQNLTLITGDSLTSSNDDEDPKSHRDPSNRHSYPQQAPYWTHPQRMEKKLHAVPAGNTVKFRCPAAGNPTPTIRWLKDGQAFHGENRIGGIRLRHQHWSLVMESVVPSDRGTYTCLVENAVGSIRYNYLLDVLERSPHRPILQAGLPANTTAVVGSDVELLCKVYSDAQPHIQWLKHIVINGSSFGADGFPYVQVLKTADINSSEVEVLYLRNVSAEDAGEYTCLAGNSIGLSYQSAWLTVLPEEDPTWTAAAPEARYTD

FGFR3b-Fc [2] = biological target: T2, FGFR3b-Fc (human, UniProt P22607-2 23-377); assay: ELISA on FGFR family Fc fusion proteins
T2 construct: Bought from R&D Systems; the IIIb form is an isoform of it; not shown: human Fc
T2 sequence (looked up): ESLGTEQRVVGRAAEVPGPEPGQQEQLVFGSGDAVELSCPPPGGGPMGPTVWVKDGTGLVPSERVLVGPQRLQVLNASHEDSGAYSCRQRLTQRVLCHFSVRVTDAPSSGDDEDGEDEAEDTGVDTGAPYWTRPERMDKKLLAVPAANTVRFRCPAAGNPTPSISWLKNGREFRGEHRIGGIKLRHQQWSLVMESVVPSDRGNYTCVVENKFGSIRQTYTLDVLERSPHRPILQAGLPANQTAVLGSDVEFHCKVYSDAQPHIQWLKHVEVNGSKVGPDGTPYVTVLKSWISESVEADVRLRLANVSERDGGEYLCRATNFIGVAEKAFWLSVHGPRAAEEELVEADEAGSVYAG

cyno FGFR2b-Fc = biological target: T3, cyno FGFR2b-Fc (Cynomolgus monkey); assay: ELISA, plate coated with cyno FGFR2b-Fc, anti-human IgG HRP
T3 construct: also called recombinant cyno FGFR2b-Fc; cynomolgus FGFR2b
Protocol: (§1) The cross-species binding of Ab 21c to recombinant cyno, rat/mouse, and human FGFR2b-Fc fusion proteins was conducted with ELISA. In brief, 96-well ELISA plate were coated with about 100 μl/well 0.1 μg/ml recombinant human FGFR2b-Fc, recombinant rat/mouse FGFR2b-Fc, or recombinant cyno FGFR2b-Fc protein in PBS overnight. Then the plate was blocked with 2% BSA in PBS with 0.05% Tween20 and incubation with antibody samples for 60 min at room temperature, and then washed twice in 1×TBST (Cell Signaling Technology, #9997) and followed by incubation with anti-human lgG HRP (Horseradish peroxidase) conjugate for 60 min at a room temperature. HRP activity was detected with tetra-methylbenzidine substrate (Cell Signaling Technology, #7004) and the reaction was stopped with stop solution (Cell Signaling Technology, #7002). The plate was read at 450 nm. […] Ab 21c has the highest binding affinity to rat/mouse FGFR2b, followed by human FGFR2b, and then cyno FGFR2b.

[3] = biological target: T4, recombinant human FGFR1b-Fc (human, UniProt P11362-19 22-376); assay: SPR (Biacore), hFGFR1b-Fc immobilized on CM5 chip, antibody injected at 0-200 nM
T4 construct: Bought from R&D Systems; also called hFGFR1b-Fc; not shown: human Fc
T4 sequence (looked up): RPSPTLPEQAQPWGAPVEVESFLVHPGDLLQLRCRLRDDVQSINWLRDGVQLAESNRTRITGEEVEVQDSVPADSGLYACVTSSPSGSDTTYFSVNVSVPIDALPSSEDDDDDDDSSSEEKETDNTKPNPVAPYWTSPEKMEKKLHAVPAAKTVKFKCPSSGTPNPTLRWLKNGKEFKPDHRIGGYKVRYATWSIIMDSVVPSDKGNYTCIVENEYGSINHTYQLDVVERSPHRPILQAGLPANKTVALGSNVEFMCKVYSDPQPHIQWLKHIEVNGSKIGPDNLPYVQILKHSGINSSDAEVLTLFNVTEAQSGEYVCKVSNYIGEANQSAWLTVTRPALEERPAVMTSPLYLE
Protocol: (§2) The binding of antibodies to human FGFR2b or human FGFR1b antigen was determined by surface plasmon resonance (Biacore). Briefly, CM5 sensor chip (GE Healthcare Life Sciences) was firstly activated by a 4 min injection of 1:1 freshly mixture of 50 mM N-hydroxysuccinamide (NHS): 200 mM […]. Then hFGFR2b-Fc or hFGFR1b-Fc was immobilized to activated CM5 sensor chip using Amine Coupling Kit (GE Healthcare Life Sciences) and 1M ethanolamine as the blocking reagent. About 20-30 response units (RU, 1 RU represents the binding of 1 pg of protein per square mm) of antigen protein were captured.
(§3) The association constant, dissociation constant were calculated with Biacore T200 evaluation software (version 1.0). […] In addition, Ab 21c is distinguished from the antibody FPA144 in terms of FGFR1b binding.

[4] = biological target: T5, recombinant rat/mouse FGFR2b-Fc (rat); assay: ELISA, plate coated with rat/mouse FGFR2b-Fc, anti-human IgG HRP
T5 construct: also called rat FGFR2b fused with murine Fc
Protocol: as §1

[5] = biological target: T4, recombinant human FGFR1b-Fc; assay: SPR (Biacore T200), hFGFR1b-Fc amine-coupled on CM5 chip, antibody as analyte
Protocol: as §2, §3

FGFR4-Fc [6] = biological target: T1, FGFR4-Fc; assay: ELISA, plate coated with HuFGFR4
FGFR3b-Fc [7] = biological target: T2, FGFR3b-Fc; assay: ELISA, plate coated with HuFGFR3b

B1: Ab hu21-21 (antibody, V domains shown)
VH: EVQLVQSGAEVKKPGASVKVSCKASGYTFTNYWMHWVRQAPGQGLEWMGAIYPENGDINYNQKFKGRVTLTRDTSISTAYMELSRLRSDDTAVYYCTSRGDYWGQGTTVTVSS
VL: AIQLTQSPSSLSASVGDRVTITCSASSGLSYMSWYQQKPGKAPKLLIYDTSNLASGVPSRFSGSGSGTDFTLTISSLQPEDFATYYCQQWSSYPYTFGQGTKLEIK
notes: Humanized antibody based on Ab 21
B1: no binding (FGFR4-Fc [1]); no binding (FGFR3b-Fc [2]).

B2: Ab hu21-26 (antibody, human IgG1, V domains shown)
VH: B1 VH with G56R
VL: B1 VL
notes: Humanized antibody with human IgG1; The VH equals that of hu21-21 except for G56R; also called afhu21-26 (afucosylated version)
B2: no binding (FGFR4-Fc [1]); no binding (FGFR3b-Fc [2]).

B3: Ab 21c (antibody, V domains shown)
VH: EVQLHQSGTVLARPGASVKMSCKTSGYTFTNYWMHWIKQRPGQGLEWIGAIYPENGDINYNQKFKGKAKLTAVTSASTAYMDLSSLTNEDSAVYYCTSRGDYWGQGTTLTVSS
VL: QIVLTQSPAIMSASPGEKVTMTCSASSGLSYMSWYQQKPGSSPRLLIYDTSNLASGVPVRFSGSGSGTSYSLTISRMEAEDAATYYCQQWSSYPYTFGGGTKLEIK
notes: Chimeric antibody: mouse VH and VL fused to human heavy and light chain constant regions; also called chimeric Ab 21c
In the case of B3, the “EC50 (read off the curve)” value (cyno FGFR2b-Fc) is reported as ~0.6 nM, the koff [3] is reported as 0.000235 s⁻¹ and the kon [3] is reported as 63800 M⁻¹ s⁻¹. The “EC50 (read off the curve)” value [4] was ~0.2 nM and the Kd [5] was 3.69 nM.

B4: Ab 21 (antibody, V domains shown)
VH: B3 VH
VL: B3 VL
notes: Mouse monoclonal antibody from a hybridoma; also called mouse Ab 21
B4: no binding (tested: about 10^-7.3 M (about 5e-8 M)) (FGFR4-Fc [6]); no binding (tested: about 10^-7.3 M (about 5e-8 M)) (FGFR3b-Fc [7]).
